Results reported in PMC5750218, “Protein-inspired antibiotics active against vancomycin- and daptomycin-resistant bacteria” (Nature Communications, 2018).
Read-outs that look alike come from different tables or passages of the source.

What was measured:
[1] = In vivo pharmacokinetics in mice; conditions: mouse; for level at […]: 0.250 h; for level at 0.5 h: 0.500 h; for bioavailability / AUC(0-inf) / AUC(0-t) / C0 / clearance / half-life / MRT inf / MRT last / Vd / Cmax / Tmax: plasma; for bioavailability: subcutaneous, SC 10 mg kg-1 vs IV 2 mg kg-1; for MRT inf: read-out: MRT0-inf; for MRT last: read-out: MRT0-last; for Vd: read-out: Vdss
Experimental: Performed by WuXi AppTec (Shanghai) Co., Ltd. Seven to 9-week-old male CD1 mice (SLAC Laboratory Animal Co. Ltd., Shanghai, China) weighing 25–35 g were acclimated for approximate 3 days before being used in the study. Animals are group housed during acclimation and in-life study in compliance with the National Research Council 'Guide for the Care and Use of Laboratory Animals.' The animal room environment is controlled (target conditions: temperature 18 to 26 °C, relative humidity 30–70%, 12 h artificial light and 12 h dark) with temperature and relative humidity monitored daily. Animals were deprived of food for approximately 16 h before formulation administration then allowed access to Certified Rodent Diet (Catalogue # M-01F, Shanghai SLAC Laboratory Animal Co. Ltd.) ad libitum 4 h post dosing. Water was autoclaved before being provided to the animals ad libitum. Formulations of compounds were prepared on the morning of the dosing day. The formulation for the IV group was filtered with filter of 0.22 μm before being dosed to animals. After dose formulation preparation, duplicate 50 μL aliquots were removed from each dose formulation for use in dose validation. For each compound studied, three mice were dosed intravenously (IV) administered to each animal via tail vein per facility SOPs using test article formulated in deionised water at 1 mg mL^−1 with a dose volume of 2 mg mL^−1, providing a dose of 2 mg mL^−1 (based on free base concentration). An additional three mice were dosed subcutaneously (SC) administered to each animal via subcutaneous bolus on each animals’ back per facility SOPs using test article formulated in deionised water at 2 mg mL^−1 with a dose volume of 5 mg mL^−1, providing a dose of 10 mg mL^−1. All animals were killed at the last study time point (100% CO2 was introduced into the animal box).
Plasma samples were collected as the following target times after each dose administration: IV Sampling Time points (hours post dosing): 0, 0.083, 0.25, 0.5, 1, 2, 4, 8 and 24. SC Sampling Time points (hours post dosing): 0, 0.25, 0.5, 1, 2, 4, 8 and 24. Approximately 30 μL blood was obtained via submandibular or saphenous vein for the first several time points. For the last time point, samples were collected via cardiac puncture while the mouse was under anaesthesia. All blood samples were transferred into pre-chilled plastic microcentrifuge tubes containing 2 μL of ethylenediaminetetraacetic acid dipotassium salt (K2-EDTA) (0.5 M) as anticoagulant and placed on wet ice until centrifugation. Harvested blood samples were centrifuged within 30 min of collection at 7000 rpm (8546 × g) 4 °C for about 10 min. After centrifugation, plasma was transferred into another pre-labelled and pre-chilled polypropylene microcentrifuge tubes, then quick-frozen over dry ice and stored at −70 ± 10 °C until LC/MSMS analysis.
LC-MS/MS methods for the quantitative determination of the test article in mouse plasma were developed with an internal standard. Benchtop stability of the compound in mouse plasma was determined at mid QC concentrations in triplicate at 0, 2 h at room temperature. The stability was determined using mean peak area ratio of T2/T0 sample. If the mean peak area ratio is within 80%~120%, the test article in the plasma is considered stable for 2 h at room temperature. […] A set of QC samples consists of three concentration levels (low, middle and high). The sample analysis was performed concurrently with a set of calibration standards and two sets of QC samples using the LC-MS/MS method.
Plasma concentration vs. time data from individual animals was analysed by WinNonLin non-compartmental model (Phoenix WinNonlin 6.2.1, Pharsight, Mountain View, CA). Pharmacokinetic parameter C 0, T ½, CL, Vdss, C max, T max, AUC0-last, AUC0-inf, %F, MRT0-last, MRT0-inf and graphs of plasma concentration vs. time profile were derived.

[2] = for half-life / microsomal CLint: liver microsomes; for Microsome-Predicted EH: hepatic extraction ratio
Experimental: Performed by CDCO, Monash University, Australia.
The metabolic stability assay was performed by incubating each test compound (1 μM) with human (Xenotech, Lot #1210057) and mouse (Xenotech, Lot #1110071) liver microsomes at 37 °C and 0.4 mg mL^−1 protein concentration. The metabolic reaction was initiated by the addition of a nicotinamide adenine dinucleotide phosphate (NADPH)-regenerating system (i.e. NADPH is the cofactor required for cytochrome P450-mediated metabolism) and quenched at various time points over the 60 min incubation period by the addition of acetonitrile. Control samples (containing no NADPH) were included (and quenched at 2, 30 and 60 min) to monitor for potential degradation in the absence of cofactors. Concentrations of each test compound in quenched samples were determined by ultra performance liquid chromatography mass spectrometry (UPLC-MS) (Waters/Micromass Xevo triple quadrupole mass spectrometer). […] In addition, glucuronidation was not considered in this study and may require further assessment using alternative test systems.
Test compound concentration vs. time data were fitted to an exponential decay function to determine the first-order rate constant for substrate depletion. In cases where clear deviation from first-order kinetics was evident, only the initial linear portion of the profile was utilised to determine the degradation rate constant (k). Each substrate depletion rate constant was then used to calculate: (1) a degradation half-life, where t 1/2 = ln(2) k ^−1; (2) an in vitro intrinsic clearance value, where CLint,in vitro = k [microsomal protein content (0.4 mg mL^−1)]^−1; (3) a predicted in vivo hepatic intrinsic clearance value, where CLint = CLint,in vitro × [liver mass (g)/body weight (kg)] × [microsomal protein (mg) / liver mass (g)]; and (4) a predicted in vivo hepatic extraction ratio, where E H = CLblood Q ^−1 = Clint [Q + Clint]^−1.
Scaling parameters assumed were: human liver mass 20 g liver / kg body weight, human microsomal protein 40 mg g^−1 liver mass[49], [50], human hepatic blood flow (Q) 20.7 mL min^−1 kg body weight^−1 [51], mouse liver mass 87.5 g liver / kg body weight, mouse microsomal protein 45 mg g^−1 liver mass[51], mouse hepatic blood flow (Q) 90 mL min^−1 kg body weight^−1 [51].

[3] = male, CD1, plasma, 2 mg/kg IV, n=3, read-out: Plasma concentration, Mean IV
[4] = male, CD1, plasma, 2 mg/kg IV, read-out: Plasma concentration, Mean IV
[5] = male, CD1, plasma, 10 mg/kg SC, n=3, read-out: Plasma concentration, Mean SC
[6] = male, CD1, plasma, 10 mg/kg SC, read-out: Plasma concentration, Mean SC

Compound `CCCCCCCCCCC(=O)N[C@@H](CCCCN)C(=O)N[C@@H](CCCCN)C(=O)N[C@@H](CCCCN)C(=O)N[C@@H](CCCCNC(=O)[C@H]1NC(=O)[C@H]2NC(=O)[C@H](NC(=O)[C@@H]3NC(=O)[C@H](CC(N)=O)NC(=O)[C@H](NC(=O)[C@@H](CC(C)C)NC)[C@H](O)c4ccc(c(Cl)c4)Oc4cc3cc(c4O[C@@H]3O[C@H](CO)[C@@H](O)[C@H](O)[C@H]3O[C@H]3C[C@](C)(N)[C@H](O)[C@H](C)O3)Oc3ccc(cc3Cl)[C@H]2O)c2ccc(O)c(c2)-c2c(O)cc(O)cc21)C(=O)O` [Compound 18, nC10CO-KKK-K(Vancomycin)-OH] has a level at 5 min [1, 3] of 5440 ng/mL, a level at […] [1, 4] of 3570 ng/mL and a level at 0.5 h [1, 4] of 2250 ng/mL. For the same compound, the level at 1 h [1, 4] was 1500 ng/mL, the level at 2 h [1, 4] was 447 ng/mL and the level at 4 h [1, 4] was 69.6 ng/mL. It also gave a level at […] [1, 5] of 2360 ng/mL, a level at 0.5 h [1, 6] of 4450 ng/mL and a level at 1 h [1, 6] of 6220 ng/mL. The level at 2 h [1, 6] was 4520 ng/mL, the level at 4 h [1, 6] was 1260 ng/mL and the level at 8 h [1, 6] was 113 ng/mL. For the same compound, the AUC0-inf/AUC0-last ([1]; IV 2 mg kg-1) was 101%, the AUC0-inf/AUC0-last ([1]; SC 10 mg kg-1) was 101% and the Tlast ([1]; SC 10 mg kg-1) was 8 h. It also gave a bioavailability [1] of 77%, an AUC(0-inf) ([1]; IV 2 mg kg-1) of 4240 ng·h/mL and an AUC(0-t) ([1]; IV 2 mg kg-1) of 4210 ng·h/mL. It also gave a C0 ([1]; IV 2 mg kg-1) of 6740 ng/mL, a clearance ([1]; IV 2 mg kg-1) of 8.11 mL/min/kg and a half-life ([1]; IV 2 mg kg-1) of 0.77 h. The MRT inf ([1]; IV 2 mg kg-1) was 0.9 h, the MRT last ([1]; IV 2 mg kg-1) was 0.9 h and the Vd ([1]; IV 2 mg kg-1) was 0.43 L/kg. It also gave an AUC(0-inf) ([1]; SC 10 mg kg-1) of 16300 ng·h/mL, an AUC(0-t) ([1]; SC 10 mg kg-1) of 16100 ng·h/mL and a Cmax ([1]; SC 10 mg kg-1) of 6290 ng/mL. For the same compound, the Tmax ([1]; SC 10 mg kg-1) was 0.83 h, the half-life ([1]; SC 10 mg kg-1) was 1.1 h and the MRT inf ([1]; SC 10 mg kg-1) was 2 h. It also gave an MRT last ([1]; SC 10 mg kg-1) of 1.9 h, a half-life ([2]; human) greater than 4.17 h and a microsomal CLint ([2]; human) of less than 7 µL/min/mg. The “Microsome-Predicted EH” value ([2]; human) was less than 0.23, the half-life ([2]; mouse) was 3.93 h and the microsomal CLint ([2]; mouse) was 7 µL/min/mg. For the same compound, the “Microsome-Predicted EH” value ([2]; mouse) was 0.24.
Compound `CNC(=O)[C@H](CCCCNC(=O)[C@H]1NC(=O)[C@H]2NC(=O)[C@H](NC(=O)[C@@H]3NC(=O)[C@H](CC(N)=O)NC(=O)[C@H](NC(=O)[C@@H](CC(C)C)NC)[C@H](O)c4ccc(c(Cl)c4)Oc4cc3cc(c4O[C@@H]3O[C@H](CO)[C@@H](O)[C@H](O)[C@H]3O[C@H]3C[C@](C)(N)[C@H](O)[C@H](C)O3)Oc3ccc(cc3Cl)[C@H]2O)c2ccc(O)c(c2)-c2c(O)cc(O)cc21)NC(=O)[C@H](CCCCN)NC(=O)[C@H](CCCCN)NC(=O)[C@H](CCCCNC(=O)c1ccc(Oc2ccccc2)cc1)NC(=O)c1ccc(Oc2ccccc2)cc1` [Compound 24, POB2K-KK-K(Vancomycin)-NHMe] has a level at 5 min [1, 3] of 13800 ng/mL, a level at […] [1, 4] of 10000 ng/mL and a level at 0.5 h [1, 4] of 5230 ng/mL. The level at 1 h [1, 4] was 3010 ng/mL, the level at 2 h [1, 4] was 1210 ng/mL and the level at 4 h [1, 4] was 285 ng/mL. It also gave a level at 8 h [1, 4] of 81.9 ng/mL, a level at […] [1, 5] of 227 ng/mL and a level at 0.5 h [1, 6] of 548 ng/mL. It also gave a level at 1 h [1, 6] of 1400 ng/mL, a level at 2 h [1, 6] of 1920 ng/mL and a level at 4 h [1, 6] of 2350 ng/mL. It also gave a level at 8 h [1, 6] of 845 ng/mL, a level at 24 h ([1]; male, CD1, plasma, 10 mg/kg SC, 24.0 h, read-out: Plasma concentration, Mean SC) of 243 ng/mL and an AUC0-inf/AUC0-last ([1]; IV 2 mg kg-1) of 101%. It also gave an AUC0-inf/AUC0-last ([1]; SC 10 mg kg-1) of 113%, a Tlast ([1]; SC 10 mg kg-1) of 24 h and a bioavailability [1] of 36.3%. The AUC(0-inf) ([1]; IV 2 mg kg-1) was 11200 ng·h/mL, the AUC(0-t) ([1]; IV 2 mg kg-1) was 11000 ng·h/mL and the C0 ([1]; IV 2 mg kg-1) was 16300 ng/mL. The clearance ([1]; IV 2 mg kg-1) was 2.98 mL/min/kg, the half-life ([1]; IV 2 mg kg-1) was 2.29 h and the MRT inf ([1]; IV 2 mg kg-1) was 1.39 h. The MRT last ([1]; IV 2 mg kg-1) was 1.24 h, the Vd ([1]; IV 2 mg kg-1) was 0.248 L/kg and the AUC(0-inf) ([1]; SC 10 mg kg-1) was 22600 ng·h/mL. It also gave an AUC(0-t) ([1]; SC 10 mg kg-1) of 20000 ng·h/mL, a Cmax ([1]; SC 10 mg kg-1) of 2350 ng/mL and a Tmax ([1]; SC 10 mg kg-1) of 4 h. The half-life ([1]; SC 10 mg kg-1) was 6.97 h, the MRT inf ([1]; SC 10 mg kg-1) was 11 h and the MRT last ([1]; SC 10 mg kg-1) was 7.99 h.
